Source: patent publication US20230212319A1, “NOVEL ANTIGEN BINDING DOMAINS AND SYNTHETIC ANTIGEN RECEPTORS INCORPORATING THE SAME” (University of Southern California, priority 2020, published 2023)

B1: 22131 (protein)
chain: MALPVTALLLPLALLLHAARPACEVQLLESGGGLIQPGGSLRLSCAASGFTFSSHAMTWVRQAPGKGLEWVSAISGSGDYTHYADSVKGRFTISRDNSKNTVYLQMNSLRAEDSAVYYCAKDEDGGSLLGHRGQGTLVTVSSGTGGGGSGGGGSGGGGSEFDIQMTQSPSSLSASVGDRVTITCKASDHINNWLAWYQQKPGQAPKLLIYGATTLETGVPSRFSGSGSGTDYTLTISSLQPEDFATYYCQQSWNTPWTFGQGTKLEIKRLEDLKNVFPPEVAVFEPSKAEIAHTQKATLVCLATGFYPDHVELSWWVNGKEVHSGVCTDPQPLKEQPALNDSRYCLSSRLRVSATFWQNPRNHFRCQVQFYGLSENDEWTQDRAKPVTQIVSAEAWGRADCGITSASYHQGVLSATILYEILLGKATLYAVLVSALVLMAMVKRKDSRGRAKRSGSGATNFSLLKQAGDVEENPGPTSATMDWIWRILFLVGAATGAHSGPQVQLQESGGGLAQAGGSLRLSCAASGRTFSMGWFRQAPGKEREFVAAITYSGGSPYYASSVRGRFTISRDNAKNTVYLQMNSLKPEDTAVYYCAANPTYGSDWNAENWGQGTQVTVSSGSGGGGSGGGGSGGGGSFEQVQLQQPGAELVKPGASVKMSCKASGYAFSSYWINWMKQKPGQGLEWIGQIYPGDGDTNYNGKFKGRATLTADTSSSTAYMQLSSLTSEDSAVYFCARSITTVVGCAMDYWGQGTSVTVSSTRIQNPDPAVYQLRDSKSSDKSVCLFTDFDSQTNVSQSKDSDVYITDKCVLDMRSMDFKSNSAVAWSNKSDFACANAFNNSIIPEDTFFPSSDVPCDVKLVEKSFETDTNLNFQNLSVIGFRILLLKVAGFNLLMTLRLWSSRAKRSGSGVKQTLNFDLLKLAGDVESNPGPSRGHMTEYKPTVRLATRDDVPRAVRTLAAAFADYPATRHTVDPDRHIERVTELQELFLTRVGLDIGKVWVADDGAAVAVWTTPESVEAGAVFAEIGPRMAELSGSRLAAQQQMEGLLAPHRPKEPAWFLATVGVSPDHQGKGLGSAVVLPGVEAAERAGVPAFLETSAPRNLPFYERLGFTVTADVEVPEGPRTWCMTRKPGA
B2: CD8SP-BCMA-FHVH-93-G4S-TCR-Vg9-F-P2A-IgHSP-CD20-vHH2-HCD25-G4S-TCR-Vd2-F-F2A-PAC (protein)
chain: MALPVTALLLPLALLLHAARPACEVQLLESGGGLIQPGGSLRLSCAASGFTFSSHAMTWVRQAPGKGLEWVSAISGSGDYTHYADSVKGRFTISRDNSKNTVYLQMNSLRAEDSAVYYCAKDEDGGSLLGHRGQGTLVTVSSGTGGGGSGGGGSGGGGSEFAGHLEQPQISSTKTLSKTARLECVVSGITISATSVYWYRERPGEVIQFLVSISYDGTVRKESGIPSGKFEVDRIPETSTSTLTIHNVEKQDIATYYCALWEAQQELGKKIKVFGPGTKLIITDKQLDKQLDADVSPKPTIFLPSIAETKLQKAGTYLCLLEKFFPDVIKIHWQEKKSNTILGSQEGNTMKTNDTYMKFSWLTVPEKSLDKEHRCIVRHENNKNGVDQEIIFPPIKTDVITMDPKDNCSKDANDTLLLQLTNTSAYYMYLLLLLKSVVYFAIITCCLLRRTAFCCNGEKSRAKRSGSGATNFSLLKQAGDVEENPGPTSATMDWIWRILFLVGAATGAHSGPQVQLQESGGGLAQAGGSLRLSCAASGRTFSMGWFRQAPGKEREFVAAITYSGGSPYYASSVRGRFTISRDNAKNTVYLQMNSLKPEDTAVYYCAANPTYGSDWNAENWGQGTQVTVSSGSGGGGSGGGGSGGGGSFEAIELVPEHQTVPVSIGVPATLRCSMKGEAIGNYYINWYRKTQGNTMTFIYREKDIYGPGFKDNFQGDIDIAKNLAVLKILAPSERDEGSYYCACDTLGMGGEYTDKLIFGKGTRVTVEPRSQPHTKPSVFVMKNGTNVACLVKEFYPKDIRINLVSSKKITEFDPAIVISPSGKYNAVKLGKYEDSNSVTCSVQHDNKTVHSTDFEVKTDSTDHVKPKETENTKQPSKSCHKPKAIVHTEKVNMMSLTVLGLRMLFAKTVAVNFLLTAKLFFLRAKRSGSGVKQTLNFDLLKLAGDVESNPGPSRAHMTEYKPTVRLATRDDVPRAVRTLAAAFADYPATRHTVDPDRHIERVTELQELFLTRVGLDIGKVWVADDGAAVAVWTTPESVEAGAVFAEIGPRMAELSGSRLAAQQQMEGLLAPHRPKEPAWFLATVGVSPDHQGKGLGSAVVLPGVEAAERAGVPAFLETSAPRNLPFYERLGFTVTADVEVPEGPRTWCMTRKPGA
B3: 22201 (protein)
chain: B2 chain

Assays:
Assay type in all cases: cell-based
RAJI cells = assay: JNG assay, co-culture with RAJI cells
How it was run: (§1)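 Read-out is NFAT-driven GFP measured by flow cytometry after ~4–18 h co-culture of SAR-expressing JNG cells with target cells (E:T about 1:2). SARs were introduced by lentiviral spinfection and selected with puromycin or blasticidin when possible; scores (+/- to 5+ ≈ 5–50% GFP+) are relative to parental JNG cells.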

L363 cells = assay: JNG assay, co-culture with L363 cells
How it was run: as §1

RAJI-CD19-KO cells = assay: JNG assay, co-culture with RAJI-CD19-KO cells; conditions: for NFAT-GFP ASSAY: Raji-CD19-KO: co-culture with Raji-CD19-KO
Method: Cellular supernatant is collected and assayed for the induction of cytokines (e.g., IL2).
JNG (Jurkat cells expressing EGFP under an NFAT promoter) were infected with lentiviral vectors encoding different single chain and multi-chain SARs by spinfection in the presence of 8 µg/ml of Polybrene® (Sigma, Catalog no. H9268). The Jurkat-NFAT-GFP cells are engineered in such a way that the IL-2 promoter, which carries NFAT binding sites, is cloned upstream of the GFP gene. These cells have been used to study signaling via TCR and CAR. The different SARs were stably expressed in Jurkat NFAT-GFP cells by lentiviral mediated gene transfer, followed by selection with puromycin or blasticidin. No drug selection was used in case the construct lacked an antibiotic resistance gene. The SAR-expressing Jurkat-NFAT-GFP cells were cocultured with the target cells at E:T ratio of approximately 1:2 for approximately 4 hours to 18 hours. When the interaction between SIRs and their target antigen results in activation of the NFAT pathway, GFP expression is induced. […] GFP expression was monitored by FACS analysis. The Jurkat-NFAT-GFP (parental) cells were used as control. The structure of different constructs can be determined based on their names. […] The sequence of the other constructs in the table can be similarly determined from their names and by referring to the different Tables of this disclosure that provide the names and SEQ ID NO of the different modules. Alternatively, the composition and modular architecture of the different SAR constructs can be determined from their sequences by bioinformatics tools, including using nucleic acid and amino acids homology searches. A SAR is considered positive in the assay in case the SAR expressing Jurkat-NFAT-GFP cells show greater % GFP positive cells when cultured with the target cell line as compared to parental Jurkat-NFAT-GFP cells. […] In general, the number +/-, +, 2+, 3+, 4+, 5+ refer to approximately 5%, 10%, 20%, 30%, 40% and 50% GFP positive cells. The % of GFP induction in the above assay is dependent not only the relative strength of the SAR but also, among other factors, on the relative level of expression of the SAR in the JNG cells and the relative level of expression of the target antigen in the target cell line. To control for the difference in gene transduction efficiency of the different SAR constructs, the experiment was conducted with JNG cells transduced with SAR constructs co-expressing a drug resistance gene (e.g., puromycin or PAC) followed by drug selection to generate a stable population of SAR-expressing cells. It is to be noted that the drug resistance gene (e.g., PAC) in the SAR constructs is optional and in vivo studies were conducted with SAR constructs lacking the PAC gene.

Nalm6 cells = assay: JNG assay, co-culture with Nalm6 cells; conditions: co-culture with Nalm6
How it was run: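 Read-out is % GFP-positive cells by flow cytometry after ~4–18 h co-culture (E:T ≈1:2) of target lines with SAR-transduced, puromycin/blasticidin-selected JNG cells. Grades +/-, +, 2+…5+ correspond to approximately 5%, 10%, 20%, 30%, 40%, 50% GFP+ over parental JNG controls.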

Molecule | NFAT-GFP ASSAY: Raji (RAJI cells; JNG cells expressing construct, co-culture with Raji) | NFAT-GFP ASSAY: L363 (L363 cells; co-culture with L363) | NFAT-GFP ASSAY: Raji-CD19-KO (RAJI-CD19-KO cells) | GFP induction / activity (RAJI cells; co-culture with RAJI cells) | GFP induction / activity (L363 cells; co-culture with L363 cells) | GFP induction / activity (RAJI-CD19-KO cells; co-culture with RAJI-CD19-KO cells) | NFAT-GFP ASSAY: Nalm6 (Nalm6 cells)
B1 | 4+ (refer to approximately 5%, 10%, 20%, 30%, 40% and 50% GFP positive cells) | 5+ (refer to approximately 5%, 10%, 20%, 30%, 40% and 50% GFP positive cells) | 5+ (refer to approximately 5%, 10%, 20%, 30%, 40% and 50% GFP positive cells) |  |  |  | 
B2 |  |  |  | robust induction of GFP | robust induction of GFP | robust induction of GFP | 
B3 |  |  | 2+ (refer to approximately 5%, 10%, 20%, 30%, 40% and 50% GFP positive cells) |  |  |  | +/- (refer to approximately 5%, 10%, 20%, 30%, 40% and 50% GFP positive cells)
